# How the values were obtained:
# [1] = system: Lenti-X 293T cells; test: YFP fluorescence quenching anion reporter plate reader assay of engineered receptors stimulated with acetylcholine or a non-native ligand; type: cell-based
# Outline: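 YFP quench was followed for about 1 min 43 s after ligand delivered in iodide-based ECS, pH 7.2. Values are end-of-read fluorescence (last 10 s) divided by the pre-ligand baseline (15 s). Cells were LX293T, transfected with receptor DNA a day before the assay.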
# [2] = system: rat DRG neurons; test: Rheobase shift and evoked action potentials in rat DRG neurons (current clamp); type: cell-based
# Method: Using whole cell manual patch clamp electrophysiology in HEK293 cells, rat DRG neurons and rat hippocampal neurons, the EC50 of the various engineered receptors disclosed herein to Ach and non-native ligands was measured using the Hill equation with peak current measurements from escalating doses of ligand. The rheobase shift was also measured in rat DRG neurons, which reflects the efficacy of the receptors. To calculate the rheobase, first, the amount of current that can produce an action potential was determined. Then the ligand was added, followed by a step wise increase in the current injected up to 700 pA.
# For manual patch clamp experiments, Cells plated on coverslips were visualized at 10× and 40× on an inverted fluorescence microscope (Olympus). Recordings were made with an Axopatch 200B amplifier and Digidata 1550B (Molecular Devices) at RT using 3-6 MOhm glass patch electrodes (Sutter, BF150-86-10). Unless otherwise stated, recordings were made in extracellular solution (ECS) containing: 140 mM sodium chloride, 4 mM potassium chloride, 1 mM magnesium chloride, 2 mM calcium chloride, 10 mM HEPES, and 10 mM D-(+)-glucose (pH=7.3 with sodium hydroxide, osmolarity=305−315 mOsm). An 8-line reservoir (AutoMate Scientific) in combination with an 8-channel zero-dead-volume perfusion pencil (AutoMate Scientific) was used for perfusion. Data was acquired using pClamp software (Molecular Devices). Traces were either analyzed in Clampfit (Molecular Devices) or using custom Python code. Plotting and statistics were performed in GraphPad Prism.
# DRG rheobase experiments were performed in current clamp mode using a potassium-based internal solution containing: 100 mM potassium D-gluconate, 28 mM potassium chloride, 1 mM magnesium chloride hexahydrate, 5 mM magnesium ATP, 10 mM HEPES, and 0.5 mM EGTA (pH=7.2 with potassium hydroxide, osmolarity=290-295 mOsm, calculated liquid junction potential=−13.5 mV). To measure DRG input resistance and rheobase, 500 ms current steps (−200 pA to 700 pA) were applied the membrane in the presence and absence of a compound. No holding current was applied to the membrane for cells included in the final datasets. Data were acquired at 10 kHz, with Bessel filter at 2 kHz and series resistance compensation at 100%. Rheobase was defined as the smallest depolarizing current injection required to cause an action potential to fire in the cell. In a subset of cells, the rheobase was ambiguous, since the action potential appeared to be graded in amplitude. In these cases, a […] of the trace clarified the rheobase. Input resistance was measured from the negative current injections, calculated as the difference in membrane potential at steady state divided by the current injection amplitude and then averaged across the four negative current steps for each recording. Resting membrane potential was measured from the first 100 ms of each sweep, averaged for each recording, and corrected for liquid junction potential. One-way ANOVA with multiple comparisons was used to test for significance of difference in rheobase and input resistance between baseline, drug, and wash conditions.
molecule,measurement,setting,value
"CODA1048: engineered chimeric LGIC receptor, R101F, Y210F in SEQ ID NO: 33 (protein, synthetic sequence of chimeric LGIC) MRCSPGGVWLALAASLLHVSLQGEFQRKLYKELVKNYNPLERPVANDSQPLTVYFSLSLLQIMDVDEKNQVLTTNIWLQMSWTDHYLQWNVSEYPGVKTVFFPDGQIWKPDILLYNSADERFDATFHTNVLVNSSGHCQYLPPGIFKSSCPMDLKNFPMDVQTCKLKFGSWSYGGWSLDLQMQEADISGYIPNGEWDLVGIPGKRSERFFECCKEPYPDVTFTVTMRRRMGYYLIQMYIPSLLIVILSWISFWINMDAAPARVGLGITTVLTMTTQSSGSRASLPKVSYVKAIDIWMAVCLLFVFSALLEYAAVNFVSRQHKELLRFRRKRRHHKSPMLNLFQEDEAGEGRFNFSAYGMGPACLQAKDGISVKGANNSNTTNPPPAPSKSPEEMRKLFIQRAKKIDKISRIGFPMAFLIFNMFYWIIYKIVRREDVHNQ",YFP fluorescence quenching using CNL001,"[1]; 1 nM CNL001, first column",9.114%
same,YFP fluorescence quenching using CNL001,"[1]; 1 nM CNL001, second column",0.845%
same,YFP fluorescence quenching using TC-5619/Bradanicline,[1]; 1 nM brd,−2.084%
same,YFP fluorescence quenching using TC-5619/Bradanicline,[1]; 3 nM brd,−9.098%
same,YFP fluorescence quenching using Varenicline,"[1]; 3 nM var, first column",−17.119
same,YFP fluorescence quenching using Varenicline,"[1]; 3 nM var, second column",−13.234
same,YFP fluorescence quenching using CNL001,"[1]; 10 nM CNL001, first column",28.944%
same,YFP fluorescence quenching using CNL001,"[1]; 10 nM CNL001, second column",53.629%
same,YFP fluorescence quenching using TC-5619/Bradanicline,[1]; 10 nM brd,−2.587%
same,YFP fluorescence quenching using TC-5619/Bradanicline,[1]; 30 nM brd,55.818%
same,YFP fluorescence quenching using Varenicline,"[1]; 30 nM var, first column",−7.747
same,YFP fluorescence quenching using Varenicline,"[1]; 30 nM var, second column",4.193
same,YFP fluorescence quenching using CNL001,"[1]; 50 nM CNL001, first column",68.581%
same,YFP fluorescence quenching using CNL001,"[1]; 50 nM CNL001, second column",74.379%
same,YFP fluorescence quenching using ABT-126,[1]; 50 nM abt,−23.28%
same,YFP fluorescence quenching using CNL001,"[1]; 100 nM CNL001, first column",80.541%
same,YFP fluorescence quenching using CNL001,"[1]; 100 nM CNL001, second column",80.774%
same,YFP fluorescence quenching using ABT-126,[1]; 100 nM abt,−21.78%
same,YFP fluorescence quenching using TC-5619/Bradanicline,[1]; 100 nM brd,76.957%
same,YFP fluorescence quenching using ABT-126,[1]; 300 nM abt,−19.35%
same,YFP fluorescence quenching using TC-5619/Bradanicline,[1]; 300 nM brd,74.268%
same,YFP fluorescence quenching using Varenicline,"[1]; 300 nM var, first column",4.149
same,YFP fluorescence quenching using Varenicline,"[1]; 300 nM var, second column",1.512
same,YFP fluorescence quenching using Varenicline,"[1]; 500 nM var, first column",−1.572
same,YFP fluorescence quenching using Varenicline,"[1]; 500 nM var, second column",3.71
same,YFP fluorescence quenching using CNL001,"[1]; 1 uM CNL001, first column",83.143%
same,YFP fluorescence quenching using CNL001,"[1]; 1 uM CNL001, second column",81.751%
same,YFP fluorescence quenching using ABT-126,[1]; 1 uM abt,−16.33%
same,YFP fluorescence quenching using Varenicline,"[1]; 1 uM var, first column",8.414
same,YFP fluorescence quenching using Varenicline,"[1]; 1 uM var, second column",4.091
same,"percent quench of YFP fluorescence, 30 nM TC-6683",[1]; TC-6683 30 nM,−29.055%
same,"percent quench of YFP fluorescence, 300 nM TC-6683",[1]; TC-6683 300 nM,−33.935%
same,"percent quench of YFP fluorescence, 3 uM TC-6683",[1]; TC-6683 3 uM,−24.613%
same,"percent quench of YFP fluorescence, 30 uM TC-6683",[1]; TC-6683 30 uM,−21.752%
same,"percent quench of YFP fluorescence, 100 uM TC-6683",[1]; TC-6683 100 uM,−22.815%
same,"percent quench of YFP fluorescence, 100 uM ach",[1]; acetylcholine 100 uM,−17.31%
same,"percent quench of YFP fluorescence, 300 uM ach",[1]; acetylcholine 300 uM,−13.7%
same,"percent quench of YFP fluorescence, 500 uM ach",[1]; acetylcholine 500 uM,−10.1%
same,"percent quench of YFP fluorescence, 1 mM ach",[1]; acetylcholine 1 mM,5.53%
same,"percent quench of YFP fluorescence, 3 mM ach",[1]; acetylcholine 3 mM,68.61%
same,"percent quench of YFP fluorescence, 10 mM ach",[1]; acetylcholine 10 mM,78.22%
same,"Rheobase Shift; Rat DRG Neurons, +TC-5619 @ EC90",[2]; +TC-5619 @ EC90,590 ± 46 pA
same,"Rheobase Shift; Rat DRG Neurons, Baseline","[2]; Baseline, no ligand",120 ± 19 pA
